Reference: the RNAGym collection of RNA variant scans (doi:10.1093/nar/gkz1192)

B1: CPEB3 Ribozyme (parent)
chain: UAACAGGGGGCCACAGCAGAAGCGUUCACGUCGCAGCCCCUGUCAGAUUCUGGUGAAUCUGCGAAUUCUGCUGUAUAUCUC

Variants of: B1
Assay: self-cleavage, relative activity (ratio to wild type); higher = more cleavage; in vitro, sequencing
Outline: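 CPEB3 self-cleaving ribozyme mutant libraries were made by rounds of error-prone PCR, barcoded, and transcribed in vitro with T7 RNA polymerase for 5 hours at 37°C. Cleavage occurred during transcription and a 15 min DNase I step before EDTA stop. RNAs were reverse transcribed with template switching and Illumina-sequenced, with DNA sequencing mapping barcodes to variants. Relative activity is the variant's cleaved/total read fraction divided by wild type's (minimum 5 reads), averaged across three batches.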

Variant | self-cleavage
U25G U51C | 0.4
U25G U54A | 0.49
U25G U54C | 0.43
U25G U58A | 0.14
U25G U58C | 0.2
U25G U60A | 0.19
U25G U60C | 0.24
U25G U66C | 0.23
U25G U67A | 0.22
U25G U67G | 0.19
U25G U69A | 0.15
U25G U69C | 0.24
U25G U72A | 0.21
U25G U72C | 0.26
U25G U74C | 0.52
U25G U74G | 0.37
U25G U76C | 0.52
U25G U78A | 0.12
U25G U78C | 0.15
U25G U80C | 0.37
U26A | 0.89
U26A A28G | 0.38
U26A A28U | 0.61
U26A A35C | 0.65

Variant | self-cleavage
U26A A35G | 1.29
U26A A35U | 0.38
U26A A45C | 0.21
U26A A45G | 0.69
U26A A45U | 0.42
U26A A47G | 0.84
U26A A47U | 0.58
U26A A56C | 0.49
U26A A56G | 0.68
U26A A56U | 0.4
U26A A57G | 0.78
U26A A57U | 0.62
U26A A64C | 0.5
U26A A64G | 0.61
U26A A64U | 0.27
U26A A65G | 0.38
U26A A65U | 0.35
U26A A75G | 0.69
U26A A75U | 0.9
U26A A77G | 0.91
U26A A77U | 1.03
U26A C27A | 0.31
U26A C27G | 0.12
U26A C29G | 0.3

Variant | self-cleavage
U26A C32A | 0.16
U26A C32G | 0.13
U26A C34G | 0.41
U26A C34U | 0.29
U26A C37G | 0.62
U26A C37U | 0.5
U26A C38A | 0.27
U26A C38U | 0.51
U26A C39U | 0.56
U26A C40A | 0.25
U26A C40G | 0.17
U26A C40U | 0.59
U26A C44G | 0.94
U26A C44U | 0.46
U26A C50A | 0.76
U26A C50U | 0.47
U26A C62A | 0.25
U26A C62G | 0.2
U26A C62U | 0.21
U26A C68A | 0.31
U26A C68U | 0.79
U26A C71A | 0.2
U26A C71U | 0.24
U26A C79A | 1.07

Variant | self-cleavage
U26A C79U | 1.05
U26A C81G | 1.1
U26A G30C | 0.24
U26A G30U | 0.19
U26A G33A | 0.17
U26A G33U | 0.1
U26A G36U | 0.39
U26A G42A | 0.29
U26A G52A | 1.06
U26A G52C | 1
U26A G52U | 1.08
U26A G53A | 1
U26A G53U | 1.04
U26A G55U | 0.77
U26A G61A | 0.73
U26A G61C | 0.27
U26A G63A | 0.74
U26A G63U | 0.87
U26A G70A | 0.4
U26A G70C | 0.2
U26A G73A | 0.96
U26A U31A | 0.34
U26A U31C | 0.69
U26A U41A | 0.25

Variant | self-cleavage
U26A U41C | 0.67
U26A U41G | 0.33
U26A U43A | 0.39
U26A U43C | 0.29
U26A U43G | 0.33
U26A U48A | 0.35
U26A U48C | 0.47
U26A U48G | 0.37
U26A U49A | 0.49
U26A U49C | 0.3
U26A U49G | 0.41
U26A U51A | 0.81
U26A U51C | 0.84
U26A U51G | 0.8
U26A U54A | 0.82
U26A U54C | 0.84
U26A U54G | 0.53
U26A U58A | 0.23
U26A U58C | 0.39
U26A U58G | 0.17
U26A U60A | 0.52
U26A U60C | 0.34
U26A U66A | 0.38
U26A U66C | 0.34

Variant | self-cleavage
U26A U66G | 0.42
U26A U67A | 0.38
U26A U67C | 0.29
U26A U69A | 0.46
U26A U69C | 0.4
U26A U69G | 0.48
U26A U72A | 0.75
U26A U72C | 1.13
U26A U72G | 0.83
U26A U74A | 1.31
U26A U74C | 1.16
U26A U76A | 1.02
U26A U76C | 0.74
U26A U78A | 0.67
U26A U78C | 0.82
U26A U78G | 0.5
U26A U80A | 0.96
U26A U80C | 1.02
U26A U80G | 1.06
U26C | 0.5
U26C A28C | 0.29
U26C A28G | 0.31
U26C A28U | 0.29
U26C A35C | 0.32

Variant | self-cleavage
U26C A35G | 1.07
U26C A35U | 0.24
U26C A45C | 0.36
U26C A45G | 0.32
U26C A45U | 0.26
U26C A47C | 0.08
U26C A47G | 0.48
U26C A47U | 0.36
U26C A56C | 0.31
U26C A56G | 0.38
U26C A56U | 0.28
U26C A57C | 0.28
U26C A57G | 0.36
U26C A57U | 0.31
U26C A64C | 0.31
U26C A64G | 0.36
U26C A64U | 0.26
U26C A65C | 0.28
U26C A65G | 0.3
U26C A65U | 0.3
U26C A75C | 0.38
U26C A75G | 0.38
U26C A75U | 0.56
